The source of these data is the supplement of paper PMC11246515.

± gives the standard deviation of the averaged measurements.

The series in a line: total protein half-life in vivo (active degradation + dilution); higher = more stable protein.
Setting [1] is: E. coli NCM3722 delta-clpP delta-lon delta-hslV, growth: N-lim chemostat, doubling time 6 h.
[2] abbreviates: E. coli NCM3722 delta-clpP, growth: N-lim chemostat, doubling time 6 h.
The mark [3] stands for this setting: E. coli NCM3722 delta-lon, growth: N-lim chemostat, doubling time 6 h.
The mark [4] stands for this setting: E. coli NCM3722 delta-smpB, growth: N-lim chemostat, doubling time 6 h.
The mark [5] stands for this setting: wild type E. coli NCM3722, growth: C-lim chemostat, doubling time 3 h.
Where [6] appears, read: wild type E. coli NCM3722, growth: C-lim chemostat, doubling time 6 h.
Where [7] appears, read: wild type E. coli NCM3722, growth: C-lim chemostat, doubling time 12 h.
The mark [8] stands for this setting: wild type E. coli NCM3722, growth: N-lim chemostat, doubling time 6 h.
Setting [9] is: wild type E. coli NCM3722, growth: N-lim chemostat, doubling time 12 h.
Setting [10] is: wild type E. coli NCM3722, growth: P-lim chemostat, doubling time 6 h.
[11] abbreviates: wild type E. coli NCM3722, growth: P-lim chemostat, doubling time 12 h.
Where [12] appears, read: E. coli NCM3722 delta-hslV, growth: N-lim chemostat, doubling time 6 h.

As to “MITVALIDDHLIVRSGFAQLLGLEPDLQVVAEFGSGREALAGLPGRGVQVCICDISMPDISGLELLSQLPKGMATIMLSVHDSPALVEQALNAGARGFLSKRCSPDELIAAVHTVATGGCYLTPDIAIKLASGRQDPLTKRERQVAEKLAQGMAVKEIAAELGLSPKTVHVHRANLMEKLGVSNDVELARRMFDGW [P0AGA6]”, the “total protein half-life in vivo” value runs as follows: under setting [1], 5.29 ± 0.12 h; under setting [2], 4.19 ± 0.075 h; under setting [3], 4.25 ± 1.2 h; under setting [4], 3.84 ± 0.34 h; under setting [5], 2.7 ± 0.14 h; under setting [6], 4.26 ± 1.2 h. Moreover, the “total protein half-life in vivo” value by setting is: under setting [7], 8.86 ± 0.39 h; under setting [8], 4.01 ± 0.17 h; under setting [9], 6.351 ± 0.022 h; under setting [10], 4.35 ± 0.56 h; under setting [11], 7.3 ± 0.44 h.

With “MNLMTTITGVVLAGGKARRMGGVDKGLLELNGKPLWQHVADALMTQLSHVVVNANRHQEIYQASGLKVIEDSLADYPGPLAGMLSVMQQEAGEWFLFCPCDTPYIPPDLAARLNHQRKDAPVVWVHDGERDHPTIALVNRAIEPLLLEYLQAGERRVMVFMRLAGGHAVDFSDHKDAFVNVNTPEELARWQEKR”, the “total protein half-life in vivo” value runs as follows: under setting [1], 4.29 ± 0.5 h; under setting [2], 3.95 ± 0.19 h; under setting [12], 3.728 ± 0.033 h; under setting [3], 4.1 ± 0.19 h; under setting [4], 3.59 ± 0.12 h; under setting [5], 2.95 ± 0.26 h. The “total protein half-life in vivo” value is, setting by setting: under setting [6], 5.9 ± 0.46 h; under setting [7], 9.71 ± 3.2 h; under setting [8], 4.46 h; under setting [9], 6.67 ± 1.5 h; under setting [10], 5.046 ± 0.009 h; under setting [11], 10.9 ± 0.43 h.

Take “MHVTAKPSSFQCNLKCDYCFYLEKESQFTHEKWMDDSTLKEFIKQYIAASGNQVYFTWQGGEPTLAGLDFFRKVIHYQQRYAGQKRIFNALQTNGILLNNEWCAFLKEHEFLVGISIDGPQELHDRYRRSNSGNGTFAKVIAAIERLKSYQVEFNTLTVINNVNVHYPLEVYHFLKSIGSKHMQFIELLETGTPNIDFSGHSENTFRIIDFSVPPTAYGKFMSTIFMQWVKNDVGEIFIRQFESFVSRFLGNGHTSCIFQESCKDNLVVESNGDIYECDHFVYPQYKIGNINKSELKTMNSVQLTAQKKRIPAKCQQCAYKPICNGGCPKHRITKVNNETVSYFCEGYKILFSTMVPYMNAMVELAKNRVPLYHIMDVAKQMENN”: the “total protein half-life in vivo” value was found to be 1.12 ± 0.083 h under setting [5], 1.77 ± 0.19 h under setting [6] and 2.03 h under setting [7].

“MFKSTLAAMAAVFALSALSPAAMAAKGDPHVLLTTSAGNIELELDKQKAPVSVQNFVDYVNSGFYNNTTFHRVIPGFMIQGGGFTEQMQQKKPNPPIKNEADNGLRNTRGTIAMARTADKDSATSQFFINVADNAFLDHGQRDFGYAVFGKVVKGMDVADKISQVPTHDVGPYQNVPSKPVVILSAKVLP [P0AFL3]”: the “total protein half-life in vivo” value under setting [1] amounted to 5.17 ± 0.94 h; the “total protein half-life in vivo” value under setting [3] is 6.04 ± 0.29 h; the “total protein half-life in vivo” value under setting [4] is 5.59 ± 0.8 h; the “total protein half-life in vivo” value under setting [5] stood at 3.1 ± 0.19 h; the “total protein half-life in vivo” value under setting [6] worked out at 4.98 ± 0.6 h; the “total protein half-life in vivo” value under setting [7] is 8.28 ± 1.4 h. For the same sequence, the “total protein half-life in vivo” value by setting is: under setting [8], 5.46 ± 0.15 h; under setting [9], 10.36 ± 0.074 h; under setting [10], 5.31 ± 0.43 h; under setting [11], 11.5 ± 0.59 h.

Consider “MRIPRIYHPEPLTSHSHIALCEDAANHIGRVLRMGPGQALQLFDGSNQVFDAEITSASKKSVEVKVLEGQIDDRESPLHIHLGQVMSRGEKMEFTIQKSIELGVSLITPLFSERCGVKLDSERLNKKLQQWQKIAIAACEQCGRNRVPEIRPAMDLEAWCAEQDEGLKLNLHPRASNSINTLPLPVERVRLLIGPEGGLSADEIAMTARYQFTDILLGPRVLRTETTALTAITALQVRFGDLG [P0AGL7]”, for which the “total protein half-life in vivo” value came to 5.91 ± 0.64 h under setting [2]; 5.44 ± 0.24 h under setting [12]; 5.41 ± 0.067 h under setting [3]; 5.19 ± 0.13 h under setting [4]; 2.98 ± 0.25 h under setting [5]; 6.14 ± 1.9 h under setting [6]. Moreover, the “total protein half-life in vivo” value under setting [7] was 10.1 ± 2.1 h; the “total protein half-life in vivo” value under setting [8] turned out to be 5.45 ± 0.37 h; the “total protein half-life in vivo” value under setting [9] was found to be 10.7 ± 0.42 h; the “total protein half-life in vivo” value under setting [10] is 6.05 ± 0.38 h; the “total protein half-life in vivo” value under setting [11] is 12.31 ± 0.12 h.

Consider “MTSSYLHFPEFDPVIFSIGPVALHWYGLMYLVGFIFAMWLATRRANRPGSGWTKNEVENLLYAGFLGVFLGGRIGYVLFYNFPQFMADPLYLFRVWDGGMSFHGGLIGVIVVMIIFARRTKRSFFQVSDFIAPLIPFGLGAGRLGNFINGELWGRVDPNFPFAMLFPGSRTEDILLLQTNPQWQSIFDTYGVLPRHPSQLYELLLEGVVLFIILNLYIRKPRPMGAVSGLFLIGYGAFRIIVEFFRQPDAQFTGAWVQYISMGQILSIPMIVAGVIMMVWAYRRSPQQHVS”, for which the “total protein half-life in vivo” value was > 8 h under setting [1]; 7.73 h under setting [3]; 6.89 ± 0.72 h under setting [8]; 6.28 ± 0.24 h under setting [10]; 11.5 ± 0.95 h under setting [11].

“MQKVKLPLTLDPVRTAQKRLDYQGIYTPDQVERVAESVVSVDSDVECSMSFAIDNQRLAVLNGDAKVTVTLECQRCGKPFTHQVYTTYCFSPVRSDEQAEALPEAYEPIEVNEFGEIDLLAMVEDEIILALPVVPVHDSEHCEVSEADMVFGELPEEAQKPNPFAVLASLKRK [P0AB28]”: the “total protein half-life in vivo” value runs as follows: under setting [1], 5.71 ± 1.6 h; under setting [2], 5.08 ± 1.3 h; under setting [12], 3.49 ± 0.1 h; under setting [3], 3.58 ± 0.24 h; under setting [4], 3.21 ± 0.78 h; under setting [5], 1.93 ± 0.19 h. Also, the “total protein half-life in vivo” value runs as follows: under setting [6], 4.48 ± 0.12 h; under setting [7], 7.12 ± 0.54 h; under setting [8], 3.66 ± 0.32 h; under setting [9], 5.22 ± 0.26 h; under setting [10], 4.32 ± 0.3 h; under setting [11], 8.64 ± 0.14 h.

On to “MRFSHRLFLLLILLLTGAPILAQEPSDVAKNVRMMVSGIVSYTRWPALSGPPKLCIFSSSRFSTALQENAATSLPYLPVIIHTQQEAMISGCNGFYFGNESPTFQMELTEQYPSKALLLIAEQNTECIIGSAFCLIIHNNDVRFAVNLDALSRSGVKVNPDVLMLARKKNDG”, for which the “total protein half-life in vivo” value is 3.28 ± 0.12 h under setting [1]; 2.98 ± 0.17 h under setting [12]; 3.1 h under setting [4]; > 8 h under setting [6]; 6.32 h under setting [7]; 2.98 h under setting [8]. Besides, the “total protein half-life in vivo” value is 4.75 h under setting [9], 5 h under setting [10] and 6.03 ± 0.098 h under setting [11].

For “MKIILLFLAALASFTVHAQPPSQTVEQTVRHIYQNYKSDATAPYFGETGERAITSARIQQALTLNDNLTLPGNIGWLDYDPVCDCQDFGDLVLESVAITQTDADHADAVVRFRIFKDDKEKTTQTLKMVAENGRWVIDDIVSNHGSVLQAVNSENEKTLAALASLQKEQPEAFVAELFEHIADYSWPWTWVVSDSYRQAVNAFYKTTFKTANNPDEDMQIERQFIYDNPICFGEESLFSRVDEIRVLEKTADSARIHVRFTLTNGNNEEQELVLQRREGKWEIADFIRPNSGSLLKQIEAKTAARLKQ”, the “total protein half-life in vivo” value reads like this: under setting [1], 5.65 h; under setting [2], 5.01 ± 0.93 h; under setting [3], 6.249 ± 0.025 h; under setting [4], 5.65 ± 0.12 h; under setting [5], 3.56 h; under setting [6], > 8 h. Also, the “total protein half-life in vivo” value was found to be 11.1 ± 0.5 h under setting [7]; 6.33 ± 0.27 h under setting [8]; 12.3 ± 1.8 h under setting [9]; 6.45 h under setting [10]; 11.28 ± 0.1 h under setting [11].
